Data as given in US8697369B2, “Method for screening a test substance for activating a receptor associated with FGF 21 activity” (National Institute of Advanced Industrial Science and …, priority 2007, dated 2014).

Legend:
[1] = biological target: T1, betaKlotho-expressing BaF3 cells (Mus musculus, UniProt Q99N32); assay: DNA synthesis (thymidine incorporation) in BaF3 cells expressing only betaKlotho; format: cell-based; details: presence or absence of heparin
T1 construct: the entire-length cDNA of mouse betaKlotho was cloned into an animal cell expression vector; expressed in transfected cells; host or cells: BaF3 (mouse pro-B) cells
T1 sequence (Q99N32 1-1043): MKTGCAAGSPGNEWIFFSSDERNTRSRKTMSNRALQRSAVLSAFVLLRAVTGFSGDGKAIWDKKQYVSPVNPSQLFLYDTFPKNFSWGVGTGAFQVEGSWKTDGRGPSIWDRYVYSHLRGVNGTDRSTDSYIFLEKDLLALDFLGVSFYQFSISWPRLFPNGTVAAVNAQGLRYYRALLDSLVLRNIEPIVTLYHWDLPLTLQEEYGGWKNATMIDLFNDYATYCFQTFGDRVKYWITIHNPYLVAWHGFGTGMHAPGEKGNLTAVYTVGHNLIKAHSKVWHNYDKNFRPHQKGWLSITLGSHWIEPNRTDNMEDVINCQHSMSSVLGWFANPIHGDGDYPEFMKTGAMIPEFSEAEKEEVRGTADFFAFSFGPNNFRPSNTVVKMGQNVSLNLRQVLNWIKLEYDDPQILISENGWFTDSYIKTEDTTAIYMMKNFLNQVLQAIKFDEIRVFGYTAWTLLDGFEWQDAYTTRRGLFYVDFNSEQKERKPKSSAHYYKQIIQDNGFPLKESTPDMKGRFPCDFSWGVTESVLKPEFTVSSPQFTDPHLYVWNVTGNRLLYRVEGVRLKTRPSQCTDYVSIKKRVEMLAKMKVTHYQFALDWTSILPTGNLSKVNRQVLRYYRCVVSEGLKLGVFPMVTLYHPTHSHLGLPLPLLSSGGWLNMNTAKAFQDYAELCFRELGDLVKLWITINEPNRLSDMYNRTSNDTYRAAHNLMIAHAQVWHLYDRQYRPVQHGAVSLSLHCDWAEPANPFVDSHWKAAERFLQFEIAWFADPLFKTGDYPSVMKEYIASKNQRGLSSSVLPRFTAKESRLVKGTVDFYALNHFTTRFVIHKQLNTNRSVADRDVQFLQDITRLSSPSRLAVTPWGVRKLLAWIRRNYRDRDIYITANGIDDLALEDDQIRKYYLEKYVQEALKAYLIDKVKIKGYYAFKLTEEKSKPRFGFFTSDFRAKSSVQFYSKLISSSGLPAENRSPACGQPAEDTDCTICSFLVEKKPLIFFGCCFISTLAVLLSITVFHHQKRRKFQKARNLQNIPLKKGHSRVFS
Description: A commonly used measurement method is a cell growth stimulating activity measurement method described in Ornitz, D. M., Xu, J., Colvin, J. S., McEwen, D. G., MacArthur, C. A., Coulier, F., Gao, G. and Goldfarb, M. (1996) Receptor specificity of the fibroblast growth factor family. J Biol Chem, 271, 15292-15297. The summary thereof is as follows. FGF used as a measurement target is added to a culture solution containing a cultured cell having an FGF receptor on the surface thereof, and the obtained mixture is cultured for a certain period of time. Thereafter, a labeled thymidine is added to the culture solution, followed by further culture for a certain period of time. By measuring the amount of the labeled thymidine incorporated into polymeric DNA during the culture, the degree of FGF to activate DNA synthesis is evaluated. (In the present invention as well, this method was adopted when the activity of FGF21 was measured in Examples 4, 5, 6, 8, 9, and 10.) […]
Immediately after inoculation, BaF3 cells that had expressed each clone and only FGFR1c were stimulated by addition of FGF21 (open bar) or PBS (filled bar) used as a control in the presence of heparin, and they were then cultured for 42 hours. […] Thereafter, the amount of thymidine incorporated into the cells was measured, so as to evaluate DNA synthesis. […]

[2] = system: 3T3-L1 fibroblasts forced to express betaKlotho; assay: Phosphorylation of FRS2 and MAPK in undifferentiated 3T3-L1 cells forced to express betaKlotho; format: cell-based; details: betaKlotho expression vector; FGF21 1.1 μg/ml and 4.5 μg/ml; 10 minutes
Description: A betaKlotho expression vector produced by the method described in Example 4 and an empty vector used as a control, into which betaKlotho cDNA had not been inserted, were introduced into 3T3-L1 fibroblasts cultured as described in Example 1 by a lipofection method, thereby obtaining Puromycin-resistant clones. These different types of cells were stimulated with FGF21, and 10 minutes after the stimulation, a cell lysate was prepared. The activation of FRS2 and MAPK that were signaling molecules located downstream of FGFR was examined by a Western blotting method.

B1: FGF21: fibroblast growth factor 21; mouse-derived protein used in Examples 1-7 and 10-13 (protein)
chain: AYPIPDSSPLLQFGGQVRQRYLYTDDDQDTEAHLEIREDGTVVGAAHRSPESLLELKALKPGVIQILGVKASRFLCQQPDGALYGSPHFDPEACSFRELLLEDGYNVYQSEAHGLPLRLPQKDSPNQDATSWGPVRFLPMPGLLHEPQDQAGFLPPEPPDVGSSDPLSMVEPLQGRSPSYAS
DNA synthesis (thymidine incorporated into the cells) [1]: did not react with FGF21 | phosphorylation levels of FRS2 and MAPK [2]: increased
